Test results as given in patent US20190106498A1, “TREATMENT FOR ACUTE MYELOID LEUKEMIA” (priority 2017, published 2019).

Assays:
[1] = in vivo
Protocol: Subjects received a loading dose of ARGX-110 on Day −14, followed by administration of ARGX-110 in combination with standard doses of AZA. Doses of ARGX-110 were administered intravenously every 2 weeks (loading dose at Day −14 and further doses on Days 3 and 17) in combination with standard doses of AZA to determine the dose limiting toxicity (see FIG. 4). The first patient of each cohort was monitored until day 7 before a second patient was included. […] The ARGX-110 dose level in the first cohort in Phase I was 1 mg/kg body weight.
All subjects in the study received a single loading dose of ARGX-110 on Day −14, at the same dose level as the bi-weekly dose. Subjects in Phase I of the study received one of the following treatments: • Cohort 1: 1 mg/kg body weight IV on Days 3 and 17 of a 28-day cycle • Cohort 2: 3 mg/kg body weight IV on Days 3 and 17 of a 28-day cycle • Cohort 3: 10 mg/kg body weight IV on Days 3 and 17 of a 28-day cycle • Cohort 4: 20 mg/kg body weight IV on Days 3 and 17 of a 28-day cycle

[2] = tested on: soluble CD27; assay: Serum soluble CD27 ELISA in patients; format: in vivo, human; details: representative patient
Protocol: FIG. 10 The serum samples were analysed using an ELISA (Duoset ELISA, human CD27/TNFRSF7 (cat: DY382-05, R&D Systems). Concentration of soluble CD27 in the sample is calculated from a calibration curve. The method allows measurement of the serum concentration of natural human soluble CD27 by means of a sandwich ELISA method. Goat Anti-Human CD27 Capture antibody is coated on a microplate and nonspecific binding sites are blocked. Human serum samples are applied and bound human soluble CD27 is detected and visualized by the subsequent additions of Biotinylated Goat Anti-Human CD27 Detection antibody, Streptavidin-HRP and the mixture of the colour reagent H2O2 and the chromogenic substrate tetramethylbenzidine (TMB).
To assess the effect of anti-CD70 monotherapy and combination therapy on the CD27/CD70 interaction as well as to further explore the effect on blast percentage and stemness, patients' soluble CD27 levels were also measured.

[3] = tested on: CD70-expressing tumor cells; details: cited from earlier work
[4] = tested on: LSCs; assay: Methylcellulose colony assays of patient mononuclear cells (LSC number/frequency, ELDA); format: in vivo, human
Protocol: FIGS. 9A-9F αCD70 mAb treatment reduces CD34^+CD38^− AML stem/progenitor cell frequencies in AML patients. (FIG. 9A) Colony formation of P2. 10^4 BM MNCs of patient P002 at diagnosis (SCR) and 14 days after administration of ARGX110 (1 mg/kg i.v., time point 0, or C1D1) were plated in methylcellulose and colony formation was assessed 2 weeks later. (FIG. 9B) Fold change in colony formation of different patients treated with indicated doses of ARGX110. (FIG. 9C) Colony formation at limiting dilution from P2. (FIG. 9D) Stem cell frequencies at SCR and Time point 0 determined in enhanced limiting dilution experiments for P2 and different patients treated with indicated doses of ARGX110. Data are represented as mean±S.D. Statistics: (a, b, e) Student's t-test; (FIG. 9E): χ^2 test; **, P<0.01; ***, P<0.001. (FIG. 9F) Colony formation of P2. 10^4, 5×10^3, 10^3 and 10^2 BM MNCs of patient P002 at diagnosis (SCR), 14 days after administration of ARGX110 (1 mg/kg i.v., time point 0, or C1D1) and after combination treatment (“combi”) were plated in methylcellulose and colony formation was assessed 2 weeks later.
To assess bone marrow blasts, bone marrow aspirates taken at the various time points were analysed. Methylcellulose colony assays using FACS sorted monocytes (mononuclear cells (CD45^dim) were selectively sorted by excluding doublets, dead cells and lymphocytes using Annexin V and antibodies for CD19 and CD4/CD8) were used to assess the number of LSCs in the bone marrow. In addition, bone marrow blast percentages were also assessed by cell morphology and flow cytometric analysis.
To further explore the impact of the mono and combination therapies on the LSC populations in patients, methylcellulose colony assays using FACS sorted ex vivo monocytes were performed. Mononuclear cells (CD45^dim) were selectively sorted by excluding doublets, dead cells and lymphocytes using Annexin V and antibodies for CD19 and CD4/CD8 and serially plated on methylcellulose for 14 days.
Bone marrow aspirate taken at day 1 was compared to bone marrow aspirate taken before administration of the ARGX-110 loading dose. Methylcellulose colony assays using FACS sorted monocytes (mononuclear cells (CD45^dim) were selectively sorted by excluding doublets, dead cells and lymphocytes using Annexin V and antibodies for CD19 and CD4/CD8) were used to assess the number of LSCs in the bone marrow.

[5] = tested on: human AML cells; assay: αCD70/decitabine treatment of AML patient-derived xenografts in NSG mice; format: in vivo; details: αCD70 10 mg/kg, decitabine 1.5 mg/kg/d, 5 days
Protocol: FIGS. 1A-1I αCD70/decitabine combination therapy eradicates human CD34^+CD38^- AML stem/progenitor cells in murine xenografts. 5×10^6 FACS-purified […] cells from BM of newly diagnosed AML patients (patient […]) were injected intravenously into the tail vein of sub-lethally irradiated NSG mice. After engraftment (day 32 (P10) and day 97 (P25) after transplantation), mice were randomized and subjected to treatment with control mAb and 10 mg/kg αCD70 mAb (41D12-D) intraperitoneally (total of 3 injections) or decitabine and (1.5 mg/kg/day) for five consecutive days alone or in combination. One day after the last treatment, animals were sacrificed and blood, spleen and BM were analyzed. (FIG. 1A) Experimental setup. (FIG. 1B) CD70 expression on CD34^+CD38^- AML stem/progenitor cells. Isotype is depicted in grey; CD70 staining in black (P10) and blue (P25). […] (FIG. 1G) Representative FACS plots and (FIG. 1H) quantification indicating the frequency of CD38^- AML cells within […]^loin^-CD90^-CD34+ AML stem/progenitor cell population. […] 32 days after engraftment (engraftment in PB: 14.45+/-0.95%), NSG mice were randomized to treatment with vehicle (Veh), αCD70 mAb (αCD70, ARGX-110, 10 mg/kg), decitabine (D, 1.5 mg/kg/d) or the combination (αCD70/D) for 5 days and bone marrow, spleen and blood were analyzed.

[6] = patient 1001002, loading dose 1 mg/kg

B1: ARGX-110: IgG1 anti-CD70 antibody with defucosylated Fc region; VH SEQ ID NO: 4, VL SEQ ID NO: 8 (antibody, V domains shown)
VH: EVQLVESGGGLVQPGGSLRLSCAASGFTFSVYYMNWVRQAPGKGLEWVSDINNEGGTTYYADSVKGRFTISRDNSKNSLYLQMNSLRAEDTAVYYCARDAGYSNHVPIFDSWGQGTLVTVSS
VL: QAVVTQEPSLTVSPGGTVTLTCGLKSGSVTSDNFPTWYQQTPGQAPRLLIYNTNTRHSGVPDRFSGSILGNKAALTITGAQADDEAEYFCALFISNPSVEFGGGTQLTVLG
modifications: IgG1, defucosylated Fc; Custom antibody fragment
- Lung infection, Grade 3-5 adverse events: Total [1]: 1
- Tooth Infection, Grade 3-5 adverse events: Total [1]: 1
- Lung infection, Grade 3-5 adverse events: (patients) ([1]; 1 mg/kg): 1 (1)
- Lung infection, Grade 3-5 adverse events: Events ([1]; 1 mg/kg): 1 (1)
- Tooth Infection, Grade 3-5 adverse events: (patients) ([1]; 3 mg/kg): 1 (1)
- Tooth Infection, Grade 3-5 adverse events: Events ([1]; 3 mg/kg): 1 (1)
- sCD27 levels after the end of treatment (EOT) [2]: rise after the end of treatment
- sCD27 levels ([2]; monotherapy C1D1 vs Loading, then combination therapy): reduces sCD27 levels compared to before treatment
- antibody dependent cellular phagocytosis (ADCP) [3]: increase antibody dependent cellular phagocytosis (ADCP) of CD70-expressing cells
- lysis via ADCC and CDC [3]: lyse CD70-expressing tumor cells
- ADCC functionality ([3]; defucosylated Fc (Potelligent)): increased ADCC functionality compared to a fucosylated counterpart
- reduction in LSC frequency compared to baseline ([4]; FIG. 9F, after monotherapy (C1D1) and combination therapy (C4D1)): ~24 fold
- number of cells per colony ([4]; following therapy (data not shown)): reduced
- circulating LSC levels ([4]; monotherapy, then combination): reduced
- factor of reduction of the number of LSCs in the bone marrow ([4]; patient 1001001, single dose 1 mg/kg, day 1 vs before loading dose, ELDA): 140,000
- cell number per colony [4, 6]: reduced
- factor of reduction of LSCs in the bone marrow [4, 6]: 2
- decrease of colony formation ([4]; patient 1001002, loading dose 1 mg/kg, all informative serial dilution concentrations): greater than 50%
- number of CD34+CD38− and CD34+CD45− cells (LSCs) [5]: reduced both the number of CD34+CD38− cells and of CD34+CD45− cells
- total engraftment in the bone marrow, spleen and blood [5]: reduced total engraftment
